B1: FITC-Ulp2-KIM peptide (fITC-AHA-DDSDVNLIGSS; Ulp2-927-937) (peptide)
peptide: DDSDVNLIGSS
modifications: fITC-AHA on the N-terminus
B2: GST-Ulp2-927-937 (minimal Ulp2-KIM, wild type) (domain or fragment)
chain: DDSDVNLIGSS
B3: GST-Ulp2-927-937 N932A (domain or fragment)
chain: DDSDVALIGSS
B4: GST-Ulp2-KIM 1DA-1 (minimal KIM, D927A) (domain or fragment)
chain: ADSDVNLIGSS

How the values were obtained:
[1] = molecular target: T1, Ctf3 complex (Ctf3, Mcm16, Mcm22), wild type, recombinant (yeast, UniProt Q12748;Q12262;P47167); assay: fluorescence polarisation
[2] = molecular target: T1, Ctf3 complex (Ctf3, Mcm16, Mcm22), wild …; assay: pull-down

T1 sequence (Q12748 whole entry, chain 1 of 3): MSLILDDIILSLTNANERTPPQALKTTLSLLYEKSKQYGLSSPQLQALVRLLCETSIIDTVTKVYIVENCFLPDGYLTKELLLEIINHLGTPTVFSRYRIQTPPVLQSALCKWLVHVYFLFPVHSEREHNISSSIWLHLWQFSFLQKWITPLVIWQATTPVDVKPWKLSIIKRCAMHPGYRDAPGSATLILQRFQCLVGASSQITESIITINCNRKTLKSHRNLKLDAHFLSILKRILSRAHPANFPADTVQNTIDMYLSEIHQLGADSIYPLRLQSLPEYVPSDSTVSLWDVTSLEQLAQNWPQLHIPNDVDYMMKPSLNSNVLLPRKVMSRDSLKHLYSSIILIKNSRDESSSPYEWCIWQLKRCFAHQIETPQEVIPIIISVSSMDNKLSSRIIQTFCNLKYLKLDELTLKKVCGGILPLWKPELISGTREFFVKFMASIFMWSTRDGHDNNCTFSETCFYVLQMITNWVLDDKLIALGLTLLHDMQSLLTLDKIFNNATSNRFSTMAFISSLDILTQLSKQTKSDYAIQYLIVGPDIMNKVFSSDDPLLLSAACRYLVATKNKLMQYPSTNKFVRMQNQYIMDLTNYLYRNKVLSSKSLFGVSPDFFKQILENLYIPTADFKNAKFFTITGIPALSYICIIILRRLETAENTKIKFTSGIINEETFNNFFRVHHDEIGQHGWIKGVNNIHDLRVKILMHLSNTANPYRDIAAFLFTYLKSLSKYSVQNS
T1 sequence (Q12262 whole entry, chain 2 of 3): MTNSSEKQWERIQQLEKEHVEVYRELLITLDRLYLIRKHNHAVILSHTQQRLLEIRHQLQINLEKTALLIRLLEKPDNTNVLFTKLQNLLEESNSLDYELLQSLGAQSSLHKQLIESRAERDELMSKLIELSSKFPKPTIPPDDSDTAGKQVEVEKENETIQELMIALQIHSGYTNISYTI
T1 sequence (P47167 whole entry, chain 3 of 3): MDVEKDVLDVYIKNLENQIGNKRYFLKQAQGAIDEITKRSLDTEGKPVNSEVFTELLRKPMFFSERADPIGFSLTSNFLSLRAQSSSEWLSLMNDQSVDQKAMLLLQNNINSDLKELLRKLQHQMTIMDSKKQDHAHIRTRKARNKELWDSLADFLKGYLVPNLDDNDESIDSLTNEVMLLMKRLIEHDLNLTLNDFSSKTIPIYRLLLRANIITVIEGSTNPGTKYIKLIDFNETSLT

Binder	Kd [1] [nM]	binding result [2]
B1	~900	–
B2	–	binds
B3	–	binds
B4	–	binds

From publication doi:10.1101/2020.12.30.424835 (bioRxiv, 2020)
